Measurements: patent US20050282743A1, “Molecular interactions in cells” (Arbor Vita Corporation, priority 2001, published 2005)

T1: GST-ZO-3 PDZ domain 1
T1 chain: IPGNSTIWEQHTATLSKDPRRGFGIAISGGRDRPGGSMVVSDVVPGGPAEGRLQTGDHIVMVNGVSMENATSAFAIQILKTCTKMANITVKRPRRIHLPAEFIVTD

T2: GST-KIAA0147 PDZ domain 3 (Homo sapiens (Human)), Q14160
T2 chain: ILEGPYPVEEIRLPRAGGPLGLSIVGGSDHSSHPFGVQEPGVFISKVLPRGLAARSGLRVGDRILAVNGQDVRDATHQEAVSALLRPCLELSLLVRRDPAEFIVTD

T3: GST-INADL PDZ domain 5 (Homo sapiens (Human)), Q8NI35
T3 chain: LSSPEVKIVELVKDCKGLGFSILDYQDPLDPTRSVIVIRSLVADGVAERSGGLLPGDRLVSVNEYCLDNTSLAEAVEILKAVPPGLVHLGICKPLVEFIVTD

T4: GST-MUPP1 PDZ domain 11 (Homo sapiens (Human)), O75970
T4 chain: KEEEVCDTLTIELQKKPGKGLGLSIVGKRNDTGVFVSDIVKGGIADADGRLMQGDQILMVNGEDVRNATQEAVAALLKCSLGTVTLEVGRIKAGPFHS

T5: GST-SYNTENIN PDZ domain 1 (Homo sapiens (Human)), O00560
T5 chain: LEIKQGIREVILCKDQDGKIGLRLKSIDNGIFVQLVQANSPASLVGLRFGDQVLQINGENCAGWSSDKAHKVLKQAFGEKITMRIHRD

T6: GST-INADL PDZ domain 8 (Homo sapiens (Human)), Q8NI35
T6 chain: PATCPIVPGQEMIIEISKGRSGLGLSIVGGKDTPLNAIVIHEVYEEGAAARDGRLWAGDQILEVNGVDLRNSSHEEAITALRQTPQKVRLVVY

T7: GST-KIAA1634 PDZ domain 2 (Homo sapiens (Human)), Q5TCQ9
T7 chain: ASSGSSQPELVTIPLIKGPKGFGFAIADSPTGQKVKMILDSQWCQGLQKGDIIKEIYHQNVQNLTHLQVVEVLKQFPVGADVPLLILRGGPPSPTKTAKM

T8: GST-DLG2 PDZ domain 2 (Homo sapiens (Human)), Q15700
T8 chain: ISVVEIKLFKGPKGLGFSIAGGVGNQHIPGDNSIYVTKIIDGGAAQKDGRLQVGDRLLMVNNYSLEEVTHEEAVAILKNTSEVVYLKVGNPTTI

T9: GST-NeDLG PDZ domain 3 (Mus musculus (Mouse)), P70175
T9 chain: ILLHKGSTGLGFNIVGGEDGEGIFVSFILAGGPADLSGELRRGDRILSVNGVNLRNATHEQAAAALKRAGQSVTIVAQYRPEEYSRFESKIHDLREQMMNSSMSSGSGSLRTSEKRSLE

T10: GST-NeDLG PDZ domain 2 (Rattus norvegicus (Rat)), Q62936
T10 chain: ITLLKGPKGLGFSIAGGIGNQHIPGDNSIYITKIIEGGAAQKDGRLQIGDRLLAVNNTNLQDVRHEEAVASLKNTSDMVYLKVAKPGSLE

T11: GST-PTPL1 PDZ domain 4 (Homo sapiens (Human)), Q12923
T11 chain: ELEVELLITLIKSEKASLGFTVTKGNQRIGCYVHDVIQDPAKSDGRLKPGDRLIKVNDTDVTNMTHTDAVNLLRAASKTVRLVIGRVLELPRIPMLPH

T12: GST-X-11 beta PDZ domain 2 (Rattus norvegicus (Rat)), O35431
T12 chain: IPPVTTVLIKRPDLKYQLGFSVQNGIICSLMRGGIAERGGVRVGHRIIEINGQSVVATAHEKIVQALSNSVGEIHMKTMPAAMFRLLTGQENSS

T13: GST-KIAA0147 PDZ domain 4 (Homo sapiens (Human)), Q14160
T13 chain: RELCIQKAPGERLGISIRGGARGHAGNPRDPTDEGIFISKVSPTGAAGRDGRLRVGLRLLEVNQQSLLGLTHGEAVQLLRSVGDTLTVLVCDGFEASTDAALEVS

T14: GST-ZO-2 PDZ domain 1 (Homo sapiens (Human)), Q9UDY2
T14 chain: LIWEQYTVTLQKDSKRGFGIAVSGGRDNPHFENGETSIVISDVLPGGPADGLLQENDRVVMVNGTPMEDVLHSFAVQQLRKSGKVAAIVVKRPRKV

T15: GST-DLG1 PDZ domain 2 (Homo sapiens), Q12959
T15 chain: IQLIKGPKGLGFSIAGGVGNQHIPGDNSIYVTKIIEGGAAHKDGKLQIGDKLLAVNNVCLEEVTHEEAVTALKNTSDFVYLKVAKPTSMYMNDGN

T16: GST-ZO-1 PDZ domain 1 (Rattus norvegicus (Rat)), A0A0G2
T16 chain: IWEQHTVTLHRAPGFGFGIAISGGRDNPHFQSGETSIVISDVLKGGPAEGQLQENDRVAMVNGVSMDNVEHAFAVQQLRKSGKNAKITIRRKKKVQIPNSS

B1: ephrin B2 (peptide)
peptide: ILNSIQVMRAQMNQIQSVEV
modifications: not checked
B2: MINT-1 (peptide)
peptide: KTMPAAMYRLLTAQEQPVYI
modifications: not checked
B3: CSPG4 (chondroitin sulfae proteoglycan 4, melanoma-associated) (peptide)
peptide: ELLQFCRTPNPALKNGQYWV
modifications: not checked
B4: TAX (peptide)
peptide: QISPGGLEPPSEKHFRETEV
modifications: not checked
B5: a-actinin 2 (peptide)
peptide: VPGALDYAAFSSALYGESDL
modifications: not checked

Biological target: T1, GST-ZO-3 PDZ domain 1
Assay: G' assay
Note: key of the grades not given here.

Binder	Classification
B1	1 A450 class
B2	2 A450 class
B3	2 A450 class

Biological target: T2, GST-KIAA0147 PDZ domain 3 (Homo sapiens …)
Assay: G' assay

Binder	Classification
B4	1 A450 class
B5	3 A450 class

Biological target: T3, GST-INADL PDZ domain 5 (Homo sapiens …)
Assay: G' assay

Binder	Classification
B3	5 A450 class

Biological target: GST-BAI-1 Associated Protein PDZ domain 3 (Homo sapiens (Human)), Q96QZ7
Assay: G' assay

Chain of GST-BAI-1 Associated Protein PDZ domain 3 (Homo sapiens (Human)), Q96QZ7 (Q96QZ7 other isoform, or with tags, fused parts or gaps): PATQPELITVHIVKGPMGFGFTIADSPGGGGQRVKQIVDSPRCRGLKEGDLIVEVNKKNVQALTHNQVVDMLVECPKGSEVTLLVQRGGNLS

Binder	Classification
B4	1 A450 class

Biological target: T4, GST-MUPP1 PDZ domain 11 (Homo sapiens …)
Assay: G' assay

Binder	Classification
B1	2 A450 class
B2	5 A450 class
B3	5 A450 class

Biological target: T5, GST-SYNTENIN PDZ domain 1 (Homo sapiens …)
Assay: G' assay

Binder	Classification
B1	1 A450 class
B2	3 A450 class
B3	2 A450 class

Biological target: T6, GST-INADL PDZ domain 8 (Homo sapiens …)
Assay: G' assay

Binder	Classification
B2	1 A450 class
B3	3 A450 class

Biological target: T7, GST-KIAA1634 PDZ domain 2 (Homo sapiens …)
Assay: G' assay

Binder	Classification
B1	1 A450 class
B4	2 A450 class

Biological target: T8, GST-DLG2 PDZ domain 2 (Homo sapiens …)
Assay: G' assay

Binder	Classification
B4	5 A450 class

Biological target: T9, GST-NeDLG PDZ domain 3 (Mus musculus …)
Assay: G' assay

Binder	Classification
B1	1 A450 class
B4	5 A450 class

Biological target: GST-DLG1 PDZ domains 1, 2 (Homo sapiens), Q12959
Assay: G' assay

Binder	Classification
B4	5 A450 class
B5	1 A450 class

Biological target: T10, GST-NeDLG PDZ domain 2 (Rattus …)
Assay: G' assay

Binder	Classification
B1	2 A450 class
B4	5 A450 class

Biological target: GST-PSD95 PDZ domain 1 (Homo sapiens)
Assay: G' assay

Binder	Classification
B4	5 A450 class

Biological target: GST-PSD95 PDZ domains 1, 2, 3 (Homo sapiens), P78352
Assay: G' assay

Chain of GST-PSD95 PDZ domains 1, 2, 3 (Homo sapiens), P78352 (P78352 62-395): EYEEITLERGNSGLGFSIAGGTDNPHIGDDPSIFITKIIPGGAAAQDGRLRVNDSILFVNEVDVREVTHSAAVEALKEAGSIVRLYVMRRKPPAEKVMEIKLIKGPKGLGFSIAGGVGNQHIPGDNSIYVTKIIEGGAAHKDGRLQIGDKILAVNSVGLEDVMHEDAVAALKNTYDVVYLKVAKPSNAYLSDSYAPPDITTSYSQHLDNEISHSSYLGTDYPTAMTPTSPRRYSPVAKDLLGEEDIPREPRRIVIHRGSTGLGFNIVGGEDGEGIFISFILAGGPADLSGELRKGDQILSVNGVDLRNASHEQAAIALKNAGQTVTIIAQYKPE

Binder	Classification
B4	5 A450 class

Biological target: T11, GST-PTPL1 PDZ domain 4 (Homo sapiens …)
Assay: G' assay

Binder	Classification
B1	2 A450 class
B2	5 A450 class
B3	5 A450 class

Biological target: T12, GST-X-11 beta PDZ domain 2 (Rattus …)
Assay: G' assay

Binder	Classification
B1	1 A450 class
B3	2 A450 class

Biological target: T13, GST-KIAA0147 PDZ domain 4 (Homo sapiens …)
Assay: G' assay

Binder	Classification
B1	2 A450 class
B4	1 A450 class

Biological target: T14, GST-ZO-2 PDZ domain 1 (Homo sapiens …)
Assay: G' assay

Binder	Classification
B1	1 A450 class
B3	5 A450 class

Biological target: T15, GST-DLG1 PDZ domain 2 (Homo sapiens), …
Assay: G' assay

Binder	Classification
B4	5 A450 class
B5	1 A450 class

Biological target: T16, GST-ZO-1 PDZ domain 1 (Rattus …)
Assay: G' assay

Binder	Classification
B1	3 A450 class
B2	1 A450 class
B3	5 A450 class

Biological target: GST-DLG1 PDZ domain 1 (Homo sapiens), Q12959
Assay: G' assay

Binder	Classification
B4	5 A450 class
